Reference: publication PMC11848828

Tests used:
[1] = target: Human 14-3-3ζ protein (human) (UniProt P63104); test: real-time 1D 1H NMR
[2] = target: Human 14-3-3ζ protein (human) (UniProt P63104); test: ITC

Sequence of UniProt P63104 (P63104 whole entry): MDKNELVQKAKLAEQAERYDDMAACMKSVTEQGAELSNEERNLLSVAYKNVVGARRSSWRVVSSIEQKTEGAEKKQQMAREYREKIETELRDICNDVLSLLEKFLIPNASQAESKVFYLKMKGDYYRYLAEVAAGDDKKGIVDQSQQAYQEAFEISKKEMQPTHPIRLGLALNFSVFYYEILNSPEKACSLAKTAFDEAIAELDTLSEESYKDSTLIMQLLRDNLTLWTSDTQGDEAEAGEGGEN

Substance	dH [2]	Kd [2]	other results
PRLR WT peptide (21-residue phosphorylated fragment of the human prolactin receptor intracellular domain, pThr391)	-5.62 kcal/mol		concentration of the cis isomer bound instantly (t0) [1]: 101 µM
PRLR W392A variant peptide	-8.17 kcal/mol	4 µM	
PRLR W392L variant peptide		13 µM	

Further lines, with some results ahead:

dH [2]	Kd [2]	Substance	other results
-4.88 kcal/mol		PRLR W392Y variant peptide	Kd, two-sets-of-sites model, first set [2]: 0.4 µM; Kd, two-sets-of-sites model, second set [2]: 2.3 µM; dH of the cis proline isomer [2]: -4.64 kcal/mol; dH of the trans proline isomer [2]: -5.4 kcal/mol
-3.08 kcal/mol	28 µM	PRLR P393V variant peptide	
